Drawing on patent publication US20240384250A1, “FIBROBLAST GROWTH FACTOR 23 MODULATING COMPOUNDS” (THE UAB RESEARCH FOUNDATION, priority 2021, published 2024), this text covers fold binding activity against Com.sKL for one substance.

In the assay the target is recombinant FGF23 protein (species not stated for the assay). Description: sKL detection assay (sandwich): FGF23 coated, sKL sample, then Fc-FGFR1c, anti-Fc-HRP, A450.

On to “FLAG-tagged soluble klotho (sKL) (receptor)”, for which the fold binding activity against Com.sKL is 7 fold.
